From the RNAGym collection of RNA variant scans (doi:10.7554/elife.80360)

B1: HDV Ribozyme (parent)
chain: GGCCGGCAUGGUCCCAGCCUCCUCGCUGGCGCCGGCUGGGCAACAUUCCGAGGGGACCGUCCCCUCGGUAAUGGCGAAUGGGACCCA

Variants of: B1
Test: self-cleavage, relative activity (ratio to wild type); higher = more cleavage; co-transcriptional

Variant | self-cleavage
GGCCGGCAUGGUCCCAGCCUCCUCGCUGGCGCCGGCUGCGCAACAUUCCGGGGGGACCGUCCCCUCGGUAAUGGCGAAUGGGACCCA [G39C A51G] | 0.38
GGCCGGCAUGGUCCCAGCCUCCUCGCUGGCGCCGGCUGCGCAACAUUCCGCGGGGACCGUCCCCUCGGUAAUGGCGAAUGGGACCCA [G39C A51C] | 0.291
GGCCGGCAUGGUCCCAGCCUCCUCGCUGGCGCCGGCUGCGCUACAUUCCGAGGGGACCGUCCCCUCGGUAAUGGCGAAUGGGACCCA [G39C A42U] | 0.227
GGCCGGCAUGGUCCCAGCCUCCUCGCUGGCGCCGGCUGCGCGACAUUCCGAGGGGACCGUCCCCUCGGUAAUGGCGAAUGGGACCCA [G39C A42G] | 0.0811
GGCCGGCAUGGUCCCAGCCUCCUCGCUGGCGCCGGCUGAGCAACAUUCCGAGGGGACCAUCCCCUCGGUAAUGGCGAAUGGGACCCA [G39A G59A] | 0.426
GGCCGGCAUGGUCCCAGCCUCCUCGCUGGCGCCGGCUGAGCAACAUUCCGAGGGGACCGUCCCCUCGGUAAUGGCGAAUGUGACCCA [G39A G81U] | 0.147
GGCCGGCAUGGUCCCAGCCUCCUCGCUGGCGCCGGCUGCGCAAAAUUCCGAGGGGACCGUCCCCUCGGUAAUGGCGAAUGGGACCCA [G39C C44A] | 0.271
GGCCGGCAUGGUCCCAGCCUCCUCGCUGGCGCCGGCUGCGCAAGAUUCCGAGGGGACCGUCCCCUCGGUAAUGGCGAAUGGGACCCA [G39C C44G] | 0
GGCCGGCAUGGUCCCAGCCUCCUCGCUGGCGCCGGCUGAGCAACAUUCCGAGGGGACCGUCCCCUCGGUAAUGACGAAUGGGACCCA [G39A G74A] | 0.172
GGCCGGCAUGGUCCCAGCCUCCUCGCUGGCGCCGGCUGAGCAACAUUCCGAGGGGACCGUCCCCUCGGUAAUGCCGAAUGGGACCCA [G39A G74C] | 0.147
GGCCGGCAUGGUCCCAGCCUCCUCGCUGGCGCCGGCUGAGCAACAUGCCGAGGGGACCGUCCCCUCGGUAAUGGCGAAUGGGACCCA [G39A U47G] | 0.185
GGCCGGCAUGGUCCCAGCCUCCUCGCUGGCGCCGGCUGAGCAACAUUCCGAGGGGACCGCCCCCUCGGUAAUGGCGAAUGGGACCCA [G39A U60C] | 0.746
GGCCGGCAUGGUCCCAGCCUCCUCGCUGGCGCCGGCUGAGCAACAUUCCGAGGGGACCGACCCCUCGGUAAUGGCGAAUGGGACCCA [G39A U60A] | 0.268
GGCCGGCAUGGUCCCAGCCUCCUCGCUGGCGCCGGCUGAGCAACAUUCCGAUGGGACCGUCCCCUCGGUAAUGGCGAAUGGGACCCA [G39A G52U] | 0.478
GGCCGGCAUGGUCCCAGCCUCCUCGCUGGCGCCGGCUGAGCAACAUUCCGACGGGACCGUCCCCUCGGUAAUGGCGAAUGGGACCCA [G39A G52C] | 0.394
GGCCGGCAUGGUCCCAGCCUCCUCGCUGGCGCCGGCUGAGCAACAUUCCGAGGGGACCGUCCCCACGGUAAUGGCGAAUGGGACCCA [G39A U65A] | 0.396

Variant | self-cleavage
GGCCGGCAUGGUCCCAGCCUCCUCGCUGGCGCCGGCUGAGCAACAUUCCGAGGGGACCGUCCCCCCGGUAAUGGCGAAUGGGACCCA [G39A U65C] | 0.463
GGCCGGCAUGGUCCCAGCCUCCUCGCUGGCGCCGGCUGCGCAACAUUCCGAGGGGACCGUCCCCUCGGUAAUGGCGCAUGGGACCCA [G39C A77C] | 0.0519
GGCCGGCAUGGUCCCAGCCUCCUCGCUGGCGCCGGCUGCGCAACAUUCCGAGGGGACCGUCCCCUCGGUAAUGGCGUAUGGGACCCA [G39C A77U] | 0.121
GGCCGGCAUGGUCCCAGCCUCCUCGCUGGCGCCGGCUGCGCAACAUUCCGAGGGGACCGUCCCCUCGGUAAUGGCGAAUGGGGCCCA [G39C A83G] | 0.317
GGCCGGCAUGGUCCCAGCCUCCUCGCUGGCGCCGGCUGCGCAACAUUCCGAGGGGACCGUCCCCUCGGUAAUGGCGAAUGGGCCCCA [G39C A83C] | 0.243
GGCCGGCAUGGUCCCAGCCUCCUCGCUGGCGCCGGCUGCGCAACAUUCCGAGGGGACCGUCCCCUCGGUAAUGGCGAAUGGGUCCCA [G39C A83U] | 0
GGCCGGCAUGGUCCCAGCCUCCUCGCUGGCGCCGGCUGCGCAACCUUCCGAGGGGACCGUCCCCUCGGUAAUGGCGAAUGGGACCCA [G39C A45C] | 0.198
GGCCGGCAUGGUCCCAGCCUCCUCGCUGGCGCCGGCUGCGCAACUUUCCGAGGGGACCGUCCCCUCGGUAAUGGCGAAUGGGACCCA [G39C A45U] | 0.0475
GGCCGGCAUGGUCCCAGCCUCCUCGCUGGCGCCGGCUGAGCAACAUUCCGAGGGGACCGUCCCCUCGGUAAUGGCGAACGGGACCCA [G39A U79C] | 0.0723
GGCCGGCAUGGUCCCAGCCUCCUCGCUGGCGCCGGCUGAGCAACAUUCCGAGGGGACCGUCCCCUCGGUAAUGGCGAAAGGGACCCA [G39A U79A] | 0.162
GGCCGGCAUGGUCCCAGCCUCCUCGCUGGCGCCGGCUGAGCAACAUUCCGAGGGGACCGUCCCCUCGGUAAUGGCGAAGGGGACCCA [G39A U79G] | 0.262
GGCCGGCAUGGUCCCAGCCUCCUCGCUGGCGCCGGCUGAGCAACAAUCCGAGGGGACCGUCCCCUCGGUAAUGGCGAAUGGGACCCA [G39A U46A] | 0.0773
GGCCGGCAUGGUCCCAGCCUCCUCGCUGGCGCCGGCUGCGCAACAUUCCGAGGGGAACGUCCCCUCGGUAAUGGCGAAUGGGACCCA [G39C C57A] | 0.141
GGCCGGCAUGGUCCCAGCCUCCUCGCUGGCGCCGGCUGCGCAACAUUCCGAGGGGACCGUCCCCUCGGUAUUGGCGAAUGGGACCCA [G39C A71U] | 0.229
GGCCGGCAUGGUCCCAGCCUCCUCGCUGGCGCCGGCUGCGCAACAUUCCGAGGGGACCGUCCCCUCGGUAGUGGCGAAUGGGACCCA [G39C A71G] | 0.158
GGCCGGCAUGGUCCCAGCCUCCUCGCUGGCGCCGGCUGAGCAACAUUCCGAGGGGACCGUCCCCUCCGUAAUGGCGAAUGGGACCCA [G39A G67C] | 0.665
